The record followed here is patent US20230272048A1 (UNIVERSITY OF MELBOURNE, published 2023).

Test [1] deals with AD8 WT Env (gp160, from lysed pseudovirions / on pseudovirus) (HIV-1 AD8, clade B). Put plainly: cell-based or functional assay.
Another test concerns the target T1, S364A (HIV-1).
T1 construct: full-length Env of lysed pseudovirus; HXB-2 numbering
Put plainly: capture ELISA on Env of lysed AD8 pseudovirus, % of WT. Background: ELISA stands for enzyme-linked immunosorbent assay.

The next test deals with T2, SS-B (human, UniProt P05455 1-408).
T2 sequence (looked up): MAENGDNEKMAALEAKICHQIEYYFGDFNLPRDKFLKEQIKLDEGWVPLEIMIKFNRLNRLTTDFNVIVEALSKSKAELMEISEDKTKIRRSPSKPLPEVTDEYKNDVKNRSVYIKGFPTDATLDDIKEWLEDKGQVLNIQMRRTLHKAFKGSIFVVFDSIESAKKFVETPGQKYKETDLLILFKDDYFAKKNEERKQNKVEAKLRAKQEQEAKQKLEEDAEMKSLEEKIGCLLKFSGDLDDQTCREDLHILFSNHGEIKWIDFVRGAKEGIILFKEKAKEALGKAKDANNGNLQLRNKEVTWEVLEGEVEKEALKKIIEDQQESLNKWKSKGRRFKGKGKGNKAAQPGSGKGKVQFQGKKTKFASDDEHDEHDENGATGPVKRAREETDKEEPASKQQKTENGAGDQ
Put plainly: single autoantigen ELISA (AESKULISA ANA-8Pro), FIG. 9A; antibody printed as '1879'.

In test [2] the target is T3, Jo-1 (human, UniProt P12081 1-509).
T3 sequence (looked up): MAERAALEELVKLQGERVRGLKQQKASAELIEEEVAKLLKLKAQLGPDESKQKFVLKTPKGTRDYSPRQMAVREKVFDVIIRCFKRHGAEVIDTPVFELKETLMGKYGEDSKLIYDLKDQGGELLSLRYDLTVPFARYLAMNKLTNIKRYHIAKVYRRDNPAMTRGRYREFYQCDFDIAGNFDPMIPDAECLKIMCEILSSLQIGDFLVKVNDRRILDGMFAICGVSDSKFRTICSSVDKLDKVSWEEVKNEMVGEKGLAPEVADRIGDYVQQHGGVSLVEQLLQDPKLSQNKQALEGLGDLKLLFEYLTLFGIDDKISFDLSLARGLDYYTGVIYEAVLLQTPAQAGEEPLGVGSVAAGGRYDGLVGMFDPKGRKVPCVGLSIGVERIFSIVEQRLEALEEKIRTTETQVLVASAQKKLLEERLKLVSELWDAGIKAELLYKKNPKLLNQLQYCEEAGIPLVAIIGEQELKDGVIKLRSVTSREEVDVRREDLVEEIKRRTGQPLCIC
The description is as above.

The target in test [3] is T4, Scl-70 (human, UniProt P11387 1-765).
T4 sequence (looked up): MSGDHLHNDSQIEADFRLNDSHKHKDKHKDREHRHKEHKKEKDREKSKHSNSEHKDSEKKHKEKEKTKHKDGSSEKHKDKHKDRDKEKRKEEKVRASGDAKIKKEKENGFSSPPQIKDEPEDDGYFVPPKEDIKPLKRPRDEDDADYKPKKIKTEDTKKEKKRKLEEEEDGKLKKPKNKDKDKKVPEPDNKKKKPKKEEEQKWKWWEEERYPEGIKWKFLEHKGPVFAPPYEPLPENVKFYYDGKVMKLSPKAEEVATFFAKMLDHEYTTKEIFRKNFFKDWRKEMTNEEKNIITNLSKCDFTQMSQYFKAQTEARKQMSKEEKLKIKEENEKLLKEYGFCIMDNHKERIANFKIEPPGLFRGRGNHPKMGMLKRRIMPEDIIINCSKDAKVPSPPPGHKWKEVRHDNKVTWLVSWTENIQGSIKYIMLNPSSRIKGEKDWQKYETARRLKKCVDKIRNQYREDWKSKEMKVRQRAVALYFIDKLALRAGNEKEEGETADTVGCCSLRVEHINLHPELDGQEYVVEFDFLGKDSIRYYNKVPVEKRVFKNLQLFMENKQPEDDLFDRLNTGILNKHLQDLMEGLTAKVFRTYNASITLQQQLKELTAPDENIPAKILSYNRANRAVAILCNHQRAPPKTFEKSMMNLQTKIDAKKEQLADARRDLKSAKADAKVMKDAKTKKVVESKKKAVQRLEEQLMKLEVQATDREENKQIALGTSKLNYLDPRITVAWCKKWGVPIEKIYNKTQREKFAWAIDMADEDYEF
The description is as above.

For another test, the target named is T5, CenpB (human, UniProt P07199 1-599).
T5 sequence (looked up): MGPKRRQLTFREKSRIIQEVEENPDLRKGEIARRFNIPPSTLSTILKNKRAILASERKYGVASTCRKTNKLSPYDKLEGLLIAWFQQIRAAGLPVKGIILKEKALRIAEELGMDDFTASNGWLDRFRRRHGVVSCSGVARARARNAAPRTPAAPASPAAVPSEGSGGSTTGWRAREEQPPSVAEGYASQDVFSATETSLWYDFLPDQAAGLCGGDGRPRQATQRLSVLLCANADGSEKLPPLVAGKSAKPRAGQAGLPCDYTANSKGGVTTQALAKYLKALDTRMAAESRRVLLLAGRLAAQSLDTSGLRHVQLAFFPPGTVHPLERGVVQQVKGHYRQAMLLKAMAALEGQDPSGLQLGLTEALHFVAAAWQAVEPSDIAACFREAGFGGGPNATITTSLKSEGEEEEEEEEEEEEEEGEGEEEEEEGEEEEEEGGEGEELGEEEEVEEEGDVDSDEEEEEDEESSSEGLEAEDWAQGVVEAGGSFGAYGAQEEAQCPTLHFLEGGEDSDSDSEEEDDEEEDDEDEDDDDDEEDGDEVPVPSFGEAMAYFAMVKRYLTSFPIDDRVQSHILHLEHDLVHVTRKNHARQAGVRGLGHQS
The description is as above.

Test [4] addresses T3, Jo-1. Put plainly: single autoantigen ELISA (AESKULISA ANA-8Pro), FIG. 9A.
The target of test [5] is T4, Scl-70. Described as above.
The next test addresses T6, monomeric AD8 gp120 (HIV-1 AD8, clade B).
T6 construct: also called monomeric gp120; monomeric gp120 form of Env
Put plainly: direct ELISA, plates coated with 1 µg/ml Env (FIG. 6C).

B1: MEL-1872 (antibody)
VH: KVQLRESGPSLVKPSQTLSLTCTASGFSLSDKAVGWVRQAPGQPLEWLGTIDTTGNAVYNPGLKSRLSITKDNSKSQVSLSLSSVTTEDSATYHCSTVHQKTRRSCPSDYSFICDCEGTGSHCCRASNCPYYCNYGRDRMCTGRSNIHEWHVDAWGQGLLVTVSS
VL: QAVLTQPSSVSGSLGQRVSTTCSGSSSNVGNGYVSWYQLIPGSAPRTLIYGDTSRASGVPDRFSGSRSGNTVTLTISSLQAEDEADYFCASAEDGSSNAVFGRGTTLTV
notes: also called H 1872; BrNAb MEL-1872
Turning to B1, the “IC50 (read off the curve); axis Neutralisation (%), panel AD8” value in test [1] was approximately 7 ng/mL. For the same molecule, the “Env binding (%) at antibody EC50” value with S364A amounted to 75%. Further, the binding result with SS-B, with Jo-1 [2], with Scl-70 [3] and with CenpB was “no binding (tested: 100 µg/ml)” throughout.

B2: MEL-2129 (antibody)
VH: KVQLRESGPSLVKPSQTLSLTCTASGFSLSDKAVGWVRQAPGKALEWLGSIDTGGNAGYNPGLKSRLSITKGNSKSQVSLSVSSVTTEDSATYYCSTVHQKTRRSCPVDYYYSCDCEGSGSHCCSASNCPYYCKYGRDRVCTDKHTYSYEWYVDAWGQGLLVTVSS
VL: B1 VL
notes: also called BrNAb MEL-2129
As to B2, the binding result in the test with Jo-1 [4] and with Scl-70 [5] was “no binding (tested: 100 µg/ml)” each time. Moreover, the “Env binding (%) at antibody EC50” value with S364A is 42%.

B3: MEL-1842 (antibody)
VH: KVQLQESGPSLVKPSQTLSLTCTASGFSLSDKAVGWVRQAPGQALEWLGSIDTGGNADYNPGLKSRLSITKDNAKSQVSLSVSSVTTEGSATYYCSTVHQKTLRSCPSDYPYICDCEDTGSHCCRATNCPYYCNHGRDRMCTGRTYTYEWHVEAWGQGLLVTVSS
VL: B1 VL
notes: also called H 1842; BrNAb MEL-1842
Take B3: the values for the binding result with monomeric AD8 gp120, in the test with Jo-1 [4] and with Scl-70 [5] were “binds”, “no binding (tested: 100 µg/ml)” and “no binding (tested: 100 µg/ml)”, respectively.
